In patent US20170037110A1 (IMMATICS BIOTECHNOLOGIES, published 2017):

B1: DDX5-001 (YLLPAIVHI from DDX5) (peptide)
peptide: YLLPAIVHI
notes: Peptide of the negative control pMHC for the T-cell stimulations; also called 665

biological target: T1, HLA-A*02:01 (human); experiment: UV peptide exchange ELISA
T1 construct: monomers captured on streptavidin plates; also called MHC class I
Summary of the method: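 Read-out is an ELISA on the UV-exchange reaction: monomers, diluted 100-fold, are captured on streptavidin and the β2m light chain is detected with 2 μg/ml HRP antibody and TMB at 450 nm.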

Binder	peptide exchange yield
FLSSVTYNL	50 to 75%
NLIGKIENV	50 to 75%
ILAPTVMMI	50 to 75%
YLIPFTGIVGL	20 to 50%
FLLVGDLMAV	50 to 75%
FLYDNLVESL	20 to 50%
YILPTETIYV	≥ 75%
TLLQIIETV	50 to 75%
VTFGEKLLGV	20 to 50%
IMQDFPAEIFL	≥ 75%
KMSELRVTL	50 to 75%
ALPEAPAPLLPHIT	20 to 50%
FLFSQLQYL	20 to 50%

biological target: T2, HLA-A*02:01 (human); experiment: pMHC used for negative control stimulations, biotin-pMHC on streptavidin beads
T2 construct: Construct limits and biotin tag are not described

Binder	binding result
B1	binds

biological target: T2, HLA-A*02:01; experiment: pMHC complex coated on artificial APCs and used as fluorescent multimer A*02/SeqID No 662

Binder	binding result
KIQEILTQV (also called IGF2BP3 peptide) [SeqID No 662 peptide (KIQEILTQV)]	binds

biological target: T2, HLA-A*02:01; experiment: pMHC complex coated on artificial APCs and used as fluorescent multimer A*02/SeqID No 663

Binder	binding result
KIQEMQHFL (also called MMP12 peptide) [SeqID No 663 peptide (KIQEMQHFL)]	binds
